Experimental data reported in the DeepSol protein solubility set.

assay: soluble on expression in E. coli; label from the status in PepcDB or PDB records

| Sequence | soluble on expression in E. coli |
| --- | --- |
| MGSDKIHHHHHHMETAAELKTRLIAQAKAEGFVSVRLCRPWDVPEVPERLRAFLEAGYHGQMKWMAERINWRENPAALWPEARSVIMLAESYTPDEDPMAVVGLPDRAAISVYARGKDYHDLVKKRLKRLARWLIEEAPDEAQVKVFVDTAPVPEKALGQASGLGWQGKHTNLVSRDWGNWAFLGSIFTTLDLPVDAPEPDRCGSCRACLTACPTDAFPAPYQLDARRCISYLTIEHKGPIEEELRTKLGNRIYGCDDCLAACPWNKFAVEASDMRYAAREGTIAPPLAELSQLDDAAFRARFSGSPIKRIGRDRFVRNVLYAIGNSGDAGLHVFAQALCDDPDPTVAEAARWAAARLP | not soluble |
| SVRVMQLTLGNSTITTQEAANSVVAYGRWPEYIKDSEANPVDQPTEPDVAACRFYTLDTVTWRKESRGWWWKLPDALKDMGLFGQNMFYHYLGRAGYTVHVQCNASKFHQGALGVFAVPEMCLAGDSTTHMFTKYENANPGEKGGEFKGSFTLDTNATNPARNFCPVDYLFGSGVLAGNAFVYPHQIINLRTNNCATLVLPYVNSLSIDSMTKHNNWGIAILPLAPLDFATESSTEIPITLTIAPMCCEFNGLRNITVPRTQ | soluble |
| MSLINPIDPAARRPQTTVQPSTPPQAKPKPLAATQVLPAQSVLNLAQSELGTDMQELGSIFPVEESCAETLENMSFALGTQARERMRGLSSSADRARPRSMMQRLAKQVSATAPDHLEELRQRVPGIEAVEEVDDLLNSLRQHQFDAGEMALLLAAMLGKDGLSPTRRRRLEEALDRVMDDEDWALQLFSHLEFGAVGKSGLAELRRLYQRAASRQSGLVYWFGQFRQMDDRQRKLKTLIRALAFELSAQGGATDIRLAAVITDLKRVLQFLGMEDHCDRVAKALAIPELDGNRIIEELLEIIQQSWVYPDWLSSRADALMPEEHSRHGYARRMGELVKLLPDDCFEDIDQRETILAAFLEYQEQLADEEEGHHHHHH | soluble |
| MDAVQDPAAGSLSRSRIVPPQVPAEYSLRPAIRNLLDRNPHSRVLMFSAPAGFGKTCALAALARERTVADQAVAWLSLAEEDDDPARFCRQLIEALGEAVPQLGDDAQTYLQNTMRVPVVAVIESLLGDLDRYARPLLLVLDDLHLVSNPDIFTGLNRLVQYAPPGLVLALGTRSQPALSLATWRAKGLLLEIGLEELRLGFEETREYLERSGLYLDEPCLKALYGQTEGWVVGVHLVSLWLRQQPQVQEMALLDGDKQAVSAYLLAAVFERLPGDLQEALLALGVASQLSGDLANALTGRQ | not soluble |
| VNCVFITPDKMDGKRISYDYVVQQYEIQRLLQRRPLITLIDICKEITSGIRVKKEYYTDKNGYKIIAPGDIRNEVIYINELKVVQPEVVREKDIINNGDILITASGKSGQVIYVNEVLEGCVVTSDIIKITLRDRDKGIRLYKFLKSSIGQMLLNSIKIGILNKIFVEDVENLLIPEDFDTYQEDCSDDSTVYAEAEKLYRSAENIFYRVFDYKGEKKNLKHFYVTEYLDSHRLDPEYYSNFYTELYRVIHKNFDDVKWEELGELVEIKKADKPEISKNQKVKYFLLADIDPNFSIIKETHEDFYGNLSNRMRYIVRRGEIVTAKGGSATGTKGHATALITEKFDGLVTTDALYNLVPRRINPYYLLFLFKQPIILNQVNMFTKGTLYKLIQRNDFEKIKIPRLESSLEEQIVDKMMNYLSVLQNKF | not soluble |
| MRGSHHHHHHMSIITDVYAREVLDSRGNPTLEVEVYTESGAFGRGMVPSGASTGEHEAVELRDGDKSRYGGLGTQKAVDNVNNIIAEAIIGYDVRDQQAIDRAMIALDGTPNKGKLGANAILGVSIAVARAAADYLEIPLYSYLGGFNTKVLPTPMMNIINGGSHSDAPIAFQEFMILPVGAPTFKEALRYGAEIFHALKKILKSRGLETAVGDEGGFAPRFEGTEDGVETILAAIEAAGYVPGKDVFLGFDCASSEFYDKERKVYDYTKFEGEGAAVRTSAEQIDYLEELVNKYPIITIEDGMDENDWDGWKALTERLGKKVQLVGDDFFVTNTDYLARGIQEGAANSILIKVNQIGTLTETFEAIEMAKEAGYTAVVSHRSGETEDSTIADIAVATNAGQIKTGSLSRTDRIAKYNQLLRIEDQLGEVAEYRGLKSFYNLKK | soluble |
| MGSDKIHHHHHHMKKLSHQFDKPKRSVASPEALEALRNNNAVRWYVLSLPDCHRGGVRGLQREQDRRIQAGEPSFGFFAPSYQEVRRIDGKFVNTQRPLLFNYVFVRASERDVFQLMQRFPVLSFLPRVRERKREYFPYLSDAAMENLQWVARSYSNTLPVYIPQPDGLRKGDRIRITEGRFKGVEATVVIQPGAGRKDVMVCVENWMWVPLLRVMPGEYEVIALNDEDKHVYTRLDNDCMLNGLHSALQRYHSAEGVNEEDRSLAARALKEYGNLRMDTDVMRCKLYAILLPAYTILGMEEEAAKLVGVMQTMLPLVKAEQSRALAVVTLYGCTDSSIYYHLAHEAVDPWKKEEKPKKSKQQLINRLADYDRWLRH | not soluble |
| MVESLKHTAAAAIAKLIHNGHFNSKSYAFDQESSNEVYAQLLRLDPQWSYNIDLKLKGLSFILTKVNFENVEMGPQTFGLLTQHNLKSLVLGNQDEIPSLEHYMSRLFRTSQIDHLDLSGRSQFSTAWLKTTGQQLPLLRTLNVSGVKLLNPDFFQFCKSFPNLYSLDISNCGVTILTGISRLKNLRHLSLRSLIYESWYDIRELFALKLLNVLDLSMHSTHHARRNMQRFLDCKQVLPELRFLECSGNLMDEDMLEELLITHSHLHQLAIVDCDVKAPKSSPIRILSCTTFDSSITALKYYLNLKRRNEVQICFQELRLHVKRLHERKMQYDVTECVTLSLQSLEKLPCSLIMNFDIVEERLFTSRLSFEADFLAEIVLHNFHRLSRVHTRLICDILLNNVNRQLIRDLRAETMWNAIIYLFNMGVFVDKQKLKGIASHCAASLHNGDPIIEEQAMRILTSCVTGKTLELVLSITESKHDTTPICLGFLRAALHKEDEQSSRRVAEKILAATHNNEEECKRYIKHGAMNMLISAIDRFDSEPMHIVILGIIRNLVMMSPYDKVQQIFTCVQFRTFQILLRNWTSSDRAYLMLSIFALRLNHQDKNFECVFRKCADELLRKHFPYLLATEITVDVDIYFDRGIVQNILRTSEEVGLVLWALLTIKIYAQKSLWNSRSIRDSNFFYLIENPHIASEVVNVASENVRFLFHW | not soluble |
| MADETDITHTKWLAYSKSLKIDLTYPGINGIGIIYNIQADQLDDYIEKQRVLRPNYAIHPSHNESEYWPITYVEPAAPNKKAIGLDMAFETNRYSSIKKARDTGVAQLTGPITLVQDAKKTPGFLFYTPFYKNGTKPESTEARRDAIDGVTYAPFIMKNLMQGTLAEKNRHVSIQIRDAGDLLFDDHDDESVLDADANPLFTKEQDISLYGRTWSFTIQSNLDFRDESAANQLEHHHHHH | soluble |
| MNKRYNTLNDYYRRIFGEKTFKVPIDAGFDCPNRDGTVAHGGCTFCTVSGSGDAIVAPEAPIRDQFYKEVDFMHRKWPDVKKYLVYFQNFTNTHDKVEVIRERYEQAINEPGVIGINIGTRPDCLPDVTILYLAELSQRLHVTLELGLQTTYEKTSKLINRAHSYQLYVETVKRVRDLAPKVEIVSHLINGLPGESHEMMLENVRRCVTDNDIDGIKLHLLHLMTNTRMQRDYHEGRLHLLSMEEYVNIICDQLEIIPKNIVIHRLTGDAPRDMLIGPMWSLNKWEVLNSIDREMERRNAYQGCKLEVNI | not soluble |
| MAHTGRMFKIEAAEIVVARLPLKFRFETSFGVQTHKVVPLLILHGEGVQGVAEGTMEARPMYREETIAGALDLLRGTFLPAILGQTFANPEAVSDALGSYRGNRMARAMVEMAAWDLWARTLGVPLCTLLGGHKEQVEVGVSLGIQADEQATVDLVRRHVEQGYRRIKLKIKPGWDVQPVRATREAFPDIRLTVDANSAYTLADAGRLRQLDEYDLTYIEQPLAWDDLVDHAELARRIRTPLCLDESVASASDARKALALGAGGVINLKVARVGGHAESRRVHDVAQSFGAPVWCGGMLESGIGRAHNIHLSCLSNFRLPGDTSSASRYWERDLIQEPLEAVDGLMPVPQGPGTGVTLDREFLATVTEAQEEHRA | soluble |
| MARGPGPLGMPRPDTVAMPKRGKRLKFRAHDACSGRVTVADYANSDPAVVRSGRVKKAIANAVQQEVKSLCGLEASQVPAEEALSGAGEPCDIIDSSDEMDAQEESIHERTVSRKKKSKRHKEELDGAGGEEYPMDIWLLLASYIRPEDIVNFSLICKNAWTVTCTAAFWTRLYRRHYTLDASLPLRLRPESMEKLRCLRACVIRSLYHMYEPFAARISKNPAIPESTPSTLKNSK | not soluble |
| MSLDGTVLVADDDRTIRTVLTQALTRAGCKVHATSSLTTLMRWVAEGKGDVVISDVVMPDGNGLEMLPKIAQDRPGLPVIVISAQNTIMTAIQAAEAEAYDYLPKPFDLPDLMKRTARALEQKRRTVSSEPREEGAERPDELPLVGRTPAMQALYRLVAKVMNTDLPVMISGESGTGKSLIARTIHDFSDRRTLPFISVTASDLMDLEGPARVLARVKGGTLLIDEIADIGDELQGRIVRMMDAPGDYVPRFMATSQGDPARAMEAGKLRRDLYYRLCGAPIHVPALRERVDDIPLLTEYFLAKAERDGAPKRWLGAGAAELFRIYSWPGNVRQLENAVRRLSLISRAEEISRTEVEQVLGNQPELEPALGGRGDSEKLSASVARHLQRYFDLHGNVLPPPGLYQRILREVEAPLIEIALEASGGNQAKCADLLGINRNTLRKKITDLDIEVTREGHHHHHH | soluble |
| MAHHHHHHMPPQQPVGIMDNEEEFPVEEPPPMDPLIKLLHLRHTYTSQYVDEAVREEVKAAMLKIAHEHNMAPYLRFASEMFCWTVDEEQLRAMDAINATKLEELDARIKDAQENLGDVEVRDGLLARCHHFARIGDMEECLKFNNECSGKTLAAGSKLDLCFQRILLGLAFSDNEVAANGICSAHRLMKEGDWERRNRLKVYEGLFYVYIRDFKKGSELLLDSISTFAASELMDFNEFILVTVVASLPVLSRSQLKKCILDSPEVHSANIKNVFHLVTAIYECRYKEVFPTLDAVCQQLRGIVYLSQHVNYFFREVRVLVFKQFLDSYSSVTLKSMSNAFGIPSPVLDSMLGTLISNERIACKMDRVSDSITTYRGDTTNLDYHRIVKNGDLLLNRIQKLSRLAEV | not soluble |
| MGSDKIHHHHHHMRFAPPNPLRIADRASGLNSLSVRSYNERLVLSLLLQNEATTRLEIGEKTGLSAQTISVIVRSLEQEGLVVRGEAQKGRVGPPTTPLMLNSEGAYSVGVSVGYHNTHIVVVDFIGNVQHHRVMPHKAADTFDAPEALALEIRLAVAGLSESRQARIAGVGLALPTPPIRSEPDHDVLHRYLEAEFGLPVFVQNDITAAAGGESLFGTARQLQDFLFFYLGARLHCRLVLNHQIYNGNSPLSYDVGVLALERRLPADSAMAEKLWGQDLSWPPLEATLADWQQACAENLIQLTQSLLQFIELRTVVLSSFVPAAICEALCRLVRQEIPSVNAVVGRTSAAPKAVGAASLPFSSRFMVN | not soluble |
| MGSDKIHHHHHHVITLWGRLNSHNVKKVAWALIEMDLPHQRRDIGGQFGYTTDYLAKNPNRMVPMIEEGELALWESNAILRYLADRHAPAFRSDDPVVRAQGDKWMDWQFHFADAQRDAFLGCVRHGKDASDPAVATSATAAAGMMAILDEELARRPWLSGDRFGIADIPMGVYAHTYHSLPIERPDLPHLADWYARLRTRPGYASQVMIPLI | not soluble |
| MRRFQRSTVIDAPRELVWAFHEQADVLEQLTPPWLPVEVVRREGGLGPGAVSEFRLWLGPVPIRWVATHNDDYEPGRCFCDRQSQGPFADWLHRHIFSREGDRTRLIDEVEYALPGGWLPELSVGPVVDAQLERLFAYRQQVTKQWCESRRDAFLQSNRTTKGLQSLLEHHHHHH | soluble |
| MGSDKIHHHHHHMSLAQFQSVECADCPIRHRAVCARCDADELEALDAIKFYRSYEAGQTVVWSGDQMNFVGSVVSGIATLTQTMEDGRTQMVGLLLPSDFVGRPGREGSAYDVVATTDVIMCCFRKKPFEDLMVRTPHIAHRLLEMTLDELDAAREWMLVLGRKTAREKIASLLSIIARRDASLAVDPSNGAVSFDLKLTREAMADYLGLTLETVSRQISALKKAGVIQLEGKRHVTVPDMHRLIEEAGDDSDGGVLG | not soluble |
